Experimental data: article PMC8252718, “carba Nicotinamide Adenine Dinucleotide Phosphate: Robust Cofactor for Redox Biocatalysis” (Angewandte Chemie (International Ed. in English), 2021)

B1: ScG6PDH (Saccharomyces cerevisiae S288C) (protein)
chain: SEGPVKFEKNTVISVFGASGDLAKKKTFPALFGLFREGYLDPSTKIFGYARSKLSMEEDLKSRVLPHLKKPHGEADDSKVEQFFKMVSYISGNYDTDEGFDELRTQIEKFEKSANVDVPHRLFYLALPPSVFLTVAKQIKSRVYAENGITRVIVEKPFGHDLASARELQKNLGPLFKEEELYRIDHYLGKELVKNLLVLRFGNQFLNASWNRDNIQSVQISFKERFGTEGRGGYFDSIGIIRDVMQNHLLQIMTLLTMERPVSFDPESIRDEKVKVLKAVAPIDTDDVLLGQYGKSEDGSKPAYVDDDTVDKDSKCVTFAAMTFNIENERWEGVPIMMRAGKALNESKVEIRLQYKAVASGVFKDIPNNELVIRVQPDAAVYLKFNAKTPGLSNATQVTDLNLTYASRYQDFWIPEAYEVLIRDALLGDHSNFVRDDELDISWGIFTPLLKHIERPDGPTPEIYPYGSRGPKGLKEYMQKHKYVMPEKHPYAWPVTKPEDTKDN
notes: details only in supplement
B2: LmG6PDH (Leuconostoc mesenteroides) (protein)
chain: VSEIKTLVTFFGGTGDLAKRKLYPSVFNLYKKGYLQKHFAIVGTARQALNDDEFKQLVRDSIKDFTDDQAQAEAFIEHFSYRAHDVTDAASYAVLKEAIEEAADKFDIDGNRIFYMSVAPRFFGTIAKYLKSEGLLADTGYNRLMIEKPFGTSYDTAAELQNDLENAFDDNQLFRIDHYLGKEMVQNIAALRFGNPIFDAAWNKDYIKNVQVTLSEVLGVEERAGYYDTAGALLDMIQNHTMQIVGWLAMEKPESFTDKDIRAAKNAAFNALKIYDEAEVNKYFVRAQYGAGDSADFKPYLEELDVPADSKNNTFIAGELQFDLPRWEGVPFYVRSGKRLAAKQTRVDIVFKAGTFNFGSEQEAQEAVLSIIIDPKGAIELKLNAKSVEDAFNTRTIDLGWTVSDEDKKNTPEPYERMIHDTMNGDGSNFADWNGVSIAWKFVDAISAVYTADKAPLETYKSGSMGPEASDKLLAANGDAWVFKG
notes: details only in supplement
B3: SsGDH (Saccharolobus solfataricus) (protein)
chain: MKAIIVKPPNAGVQVKDVDEKKLDSYGKIKIRTIYNGICGTDREIVNGKLTLSTLPKGKDFLVLGHEAIGVVEESYHGFSQGDLVMPVNRRGCGICRNCLVGRPDFCETGEFGEAGIHKMDGFMREWWYDDPKYLVKIPKSIEDIGILAQPLADIEKSIEEILEVQKRVPVWTCDDGTLNCRKVLVVGTGPIGVLFTLLFRTYGLEVWMANRREPTEVEQTVIEETKTNYYNSSNGYDKLKDSVGKFDVIIDATGADVNILGNVIPLLGRNGVLGLFGFSTSGSVPLDYKTLQEIVHTNKTIIGLVNGQKPHFQQAVVHLASWKTLYPKAAKMLITKTVSINDEKELLKVLREKEHGEIKIRILWE
notes: details only in supplement

How the values were obtained:
[1] = substrate: NC(=O)c1ccc[n+]([C@@H]2O[C@H](COP(=O)(O)OP(=O)(O)OC[C@H]3O[C@@H](n4cnc5c(N)ncnc54)[C@H](OP(=O)(O)O)[C@@H]3O)[C@@H](O)[C@H]2O)c1; assay: purified protein, by the assay type; parameters: Spectrophotometric steady-state kinetics with varied oxidised cofactor in 96-well plates; settings: pH 8.0
Description: (§1) 12 cofactor concentrations of both cofactors ([NADP+ ] or [cNADP+ ]) x 2 (duplicates) = 48 reaction mixtures The enzyme concentration [E] as well as the buffer concentration [buffer] and the measurement conditions ( such as temperature of measurement (Tmeasure); volume (V), preheating time (theat), sequence of process steps (pipetting, preheating, addition of enzyme and measurement) were kept constant for the measurements of a kinetic. The reaction mixtures were pipetted in MTPs with the help of LHS, followed by preheating of the mixture and addition of 25 µL of enzyme solution was added with an electric MCP in multi-dispense mode, and measurement in an Epoch 2 - BioTek photometer. […] Detailed values of concentrations and reaction conditions can be found in the corresponding figures and their discriptons. SUPPORTING INFORMATION S5 Enzymatic activity measurements for NADP+ and carba-NADP+ All assays were performed in 96-well MTP plates in a reaction volume of 200 µL. Reactions were started by adding the enzyme. A detailed overview is given in (Table 2) showing the preferred reaction, the acceptance towards both cofactors (NADP(H) and carba-NADP(H)) and further reaction conditions. For all reactions, multiple negative reactions, were performed without adding a cofactor, enzyme or substrate, respectively. Production of carba-NADP+ The cofactor carba-NADP+ was prepared according to literature(WO 2011/012270 A1) by means of chemical and biocatalytical methods.[2] […] Reaction was followed spectrophotometrically. After full reduction, SsGDH was removed using a centrifugal filter with 10 kDa cut-off. The reduced cofactor was stored at -80 °C until further use. 10 mM stock was diluted 1:10 within the final reaction mixture. Biocatalytic approaches using (carba)-NADPH thus contained 2 mM glucose, 1 mM gluconic acid and 0.2 mM Tris-HCl as contaminants.

[2] = substrate: NC(=O)c1ccc[n+]([C@@H]2C[C@H](COP(=O)(O)OP(=O)(O)OC[C@H]3O[C@@H](n4cnc5c(N)ncnc54)[C@H](OP(=O)(O)O)[C@@H]3O)[C@@H](O)[C@H]2O)c1; assay: purified protein, by the assay type; parameters: Spectrophotometric steady-state kinetics with varied oxidised cofactor in 96-well plates; settings: pH 8.0
Description: as §1

steady-state kinetics [3] = substrate: NC(=O)c1ccc[n+]([C@@H]2O[C@H](COP(=O)(O)OP(=O)(O)OC[C@H]3O[C@@H](n4cnc5c(N)ncnc54)[C@H](OP(=O)(O)O)[C@@H]3O)[C@@H](O)[C@H]2O)c1; assay: steady-state kinetics; type: biochemical, Saccharolobus solfataricus; settings: sugar oxidation; natural cofactor; varied: cofactor
Description: (§2) steady-state kinetics on SsGDH | Looking deeper into the kinetic parameters of a selection of five enzymes | decreased Michaelis constant (K m) for the biomimetic for most of the enzymes

steady-state kinetics [4] = substrate: NC(=O)c1ccc[n+]([C@@H]2C[C@H](COP(=O)(O)OP(=O)(O)OC[C@H]3O[C@@H](n4cnc5c(N)ncnc54)[C@H](OP(=O)(O)O)[C@@H]3O)[C@@H](O)[C@H]2O)c1; assay: steady-state kinetics; type: biochemical, Saccharolobus solfataricus; settings: sugar oxidation; D-glucose activity about half of that with NADP+; varied: cofactor
Description: as §2

Row | Protein | Km [1] | Vmax [1] | kcat [1] | kcat/Km [1] | Km [2] | Vmax [2] | kcat [2] | kcat/Km [2] | Km (steady-state kinetics [3]) | kcat (steady-state kinetics [3]) | Km (steady-state kinetics [4]) | kcat (steady-state kinetics [4])
1 | B1 | 157 µM | 245 µmol/min/mg | 235 s⁻¹ | 1.5e+06 M⁻¹ s⁻¹ | 26 µM | 14 µmol/min/mg | 13.4 s⁻¹ | 516000 M⁻¹ s⁻¹ | – | – | – | –
2 | B2 | 75 µM | 166 µmol/min/mg | 150 s⁻¹ | 2e+06 M⁻¹ s⁻¹ | 27 µM | 45 µmol/min/mg | 40.7 s⁻¹ | 1.51e+06 M⁻¹ s⁻¹ | – | – | – | –
3 | B3 | – | – | – | – | – | – | – | – | 80 µM | 2.25 s⁻¹ | 10 µM | 1.0 s⁻¹
